Experimental data taken from publication PMC9729883.

Columns and labels:
[1] = target: unmodified forms (of BB7.2 IgG1 and IgG3, as a group for a mean dissociation rate); test: BLI; SAX2 tips loaded with biotinylated HLA-A2 (0.25 ug/mL), then recombinant HLA-A2 IgG (3 ug/mL, 600 s), dipped into 5 uM monomeric FcγRIIIa V158; 0.05% Tween-PBS; off-rate from a one phase exponential decay fit, reference tip subtracted
[2] = target: afucosylated IgG1 and IgG3 (HLA-A2 mAbs, as a group for a mean dissociation rate); test: as above

koff [1]: 0.46 s⁻¹ | koff [2]: 0.021 s⁻¹
Substance: FcγRIIIa V158 (human, monomeric) (receptor)
